Experimental data: PMC3362203 (Nature structural & molecular biology, 2011)
Each block holds one molecule with its values, some of them ahead of it.

How the values were obtained:
[1] = target: 1:1 RP105 N402Q–MD-1 complex
[2] = target: bovine 1:1 sRP105–MD-1 complex (building block of the 2:2 complex) (bovine); assay: crystal structure
[3] = target: bovine 1:1 sRP105–MD-1 complex (building block of the 2:2 complex) (bovine); assay: SEC
SEC = target: the molecule itself; assay: SEC

- stoichiometry N [1]: 2
Molecule: 1:1 RP105 N402Q–MD-1 complex

- stoichiometry N [2]: 2
- stoichiometry N [3]: 2
Molecule: bovine 1:1 sRP105–MD-1 complex (building block of the 2:2 complex)

B1: human 1:1 sRP105–MD-1 complex (complex)
chain 1: WDQMCIEKEANKTYNCENLGLSEIPDTLPNTTEFLEFSFNFLPTIHNRTFSRLMNLTFLDLTRCQINWIHEDTFQSHHQLSTLVLTGNPLIFMAETSLNGPKSLKHLFLIQTGISNLEFIPVHNLENLESLYLGSNHISSIKFPKDFPARNLKVLDFQNNAIHYISREDMRSLEQAINLSLNFNGNNVKGIELGAFDSTIFQSLNFGGTPNLSVIFNGLQNSTTQSLWLGTFEDIDDEDISSAMLKGLCEMSVESLNLQEHRFSDISSTTFQCFTQLQELDLTATHLKGLPSGMKGLNLLKKLVLSVNHFDQLCQISAANFPSLTHLYIRGNVKKLHLGVGCLEKLGNLQTLDLSHNDIEASDCCSLQLKNLSHLQTLNLSHNEPLGLQSQAFKECPQLELLDLAFTRLHINAPQSPFQNLHFLQVLNLTYCFLDTSNQHLLAGLPVLRHLNLKGNHFQDGTITKTNLLQTVGSLEVLILSSCGLLSIDQQAFHSLGKMSHVDLSHNSLTCDSIDSLSHLKGIYLNLAANSINIISPRLLPILSQQSTINLSHNPLDCTCSNIHFLTWYKENLHKLEGSEETTCANPPSLRGVKLSDVKLSCG
chain 2: GGGGKAWPTHVVCSDSGLEVLYQSCDPLQDFGFSVEKCSKQLKSNINIRFGIILREDIKELFLDLALMSQGSSVLNFSYPICEAALPKFSFCGRRKGEQIYYAGPVNNPEFTIPQGEYQVLLELYTEKRSTVACANATIMCS
- stoichiometry N (SEC): 2

B2: mouse 1:1 sRP105–MD-1 complex (wild type) (complex)
chain 1: TTSSDQKCIEKEVNKTYNCENLGLNEIPGTLPNSTECLEFSFNVLPTIQNTTFSRLINLTFLDLTRCQIYWIHEDTFQSQHRLDTLVLTANPLIFMAETALSGPKALKHLFFIQTGISSIDFIPLHNQKTLESLYLGSNHISSIKLPKGFPTEKLKVLDFQNNAIHYLSKEDMSSLQQATNLSLNLNGNDIAGIELGAFDSAVFQSLNFGGTQNLLVIFKGLKNSTIQSLWLGTFEDMDDEDISPAVFEGLCEMSVESINLQKHYFFNISSNTFHCFSGLQELDLTATHLSELPSGLVGLSTLKKLVLSANKFENLCQISASNFPSLTHLSIKGNTKRLELGTGCLENLENLRELDLSHDDIETSDCCNLQLRNLSHLQSLNLSYNEPLSLKTEAFKECPQLELLDLAFTRLKVKDAQSPFQNLHLLKVLNLSHSLLDISSEQLFDGLPALQHLNLQGNHFPKGNIQKTNSLQTLGRLEILVLSFCDLSSIDQHAFTSLKMMNHVDLSHNRLTSSSIEALSHLKGIYLNLASNRISIILPSLLPILSQQRTINLRQNPLDCTCSNIYFLEWYKENMQKLEDTEDTLCENPPLLRGVRLSDVTLSCS
chain 2: DHGSENGWPKHTACNSGGLEVVYQSCDPLQDFGLSIDQCSKQIQSNLNIRFGIILRQDIRKLFLDITLMAKGSSILNYSYPLCEEDQPKFSFCGRRKGEQIYYAGPVNNPGLDVPQGEYQLLLELYNENRATVACANATVTSS
- stoichiometry N (SEC): 2
